Results on three molecules are retold here after patent publication US20120282282A1, “Methods for Decreasing Ocular Toxicity of Antibody Drug Conjugates” (priority 2011, published 2012).

Like-named read-outs stand apart in the source and are kept apart here.

Data set [1] in a line: SAR3419 Phase I clinical trials, pharmacokinetics and toxicity. Format: in vivo, human. The source says: SAR3419 is a DM4-containing antibody drug conjugate that comprises the humanized antibody Hu-B4 (humanized mouse IgG1 MAb targeting CD19) and the SPDB linker. Phase I clinical trials were initiated in patients having relapsed or refractory CD19+B cell Non-Hodgkins Lymphoma.

The format of data set [2] is in vivo. The conditions noted are these: rabbit, 3 weekly doses. The method, then: Maytansinoid conjugates with different linker-maytansinoid formats were evaluated for induction of corneal ocular toxicity in a preclinical rabbit model. Hallmarks of corneal epithelial damage such as migration of pigmented basal epithelial cells distal from the limbus, corneal pannus, and epithelial erosion were assessed following 3 weekly doses.

A short description of data set [3]: IMGN242 preclinical pharmacokinetic studies, mice. The format is in vivo. The procedure:
(§1) IMGN242 is an antibody drug conjugate for the treatment of CanAg-expressing tumors. The compound is made by conjugating the potent cytotoxic maytansinoid, DM4, to the monoclonal antibody, huC242. Forty-five patients have been treated with IMGN242 at 8 different dose levels (18 to 297 mg/m2) in two clinical trials. […] The determined half-life in patients was similar to that predicted for IMGN242 from preclinical pharmacokinetic studies (t1/2 about 5 days in mice and 4 days in cynomolgus monkeys).

A short description of data set [4]: IMGN242 pharmacokinetics and toxicity in human clinical trials. The format is in vivo.
Data set [5] is described as follows: IMGN242 preclinical pharmacokinetic studies, cynomolgus monkeys. Format: in vivo. The method, then: as §1
[6] abbreviates: patients, 160 mg/m^2 and 208 mg/m^2.
Setting [7] is: patients with low circulating CanAg (<1000 U/mL).

As to SAR3419, in data set [1] (setting [6]), the elimination result is reported as “eliminated rapidly” and the exposure versus dose entry is on record as “increased with dose”. Further, the ocular toxicity entry in data set [1] (some patients, 160 mg/m^2 or 208 mg/m^2) is recorded as “displayed ocular toxicity”.
SMCC-DM1: the corneal ocular toxicity entry in data set [2] (dose 8 mg/kg), in data set [2] (dose 10 mg/kg), in data set [2] (dose 12 mg/kg) and in data set [2] (dose 16 mg/kg) was “−” in each case.

B1: IMGN242 (conjugate, chains of the INN, looked up)
VH: QVQLVQSGAEVKKPGETVKISCKASDYTFTYYGMNWVKQAPGQGLKWMGWIDTTTGEPTYAQKFQGRIAFSLETSASTAYLQIKSLKSEDTATYFCARRGPYNWYFDVWGQGTTVTVSS
VL: DIVMTQSPLSVPVTPGEPVSISCRSSKSLLHSNGNTYLYWFLQRPGQSPQLLIYRMSNLVSGVPDRFSGSGSGTAFTLRISRVEAEDVGVYYCLQHLEYPFTFGPGTKLELK
modifications: maytansinoid DM1 payload (mertansine)
B1: the t1/2 entry in data set [3] is given as “about 5 days”. Further, in data set [4] (patients), the Cmax versus dose result is listed as “increased proportionally with increasing dose” and the “effect of circulating CanAg levels on Cmax” value is listed as “not significantly affected”. In data set [4] (patients with high CanAg (>1000 U/mL) compared to low (<1000 U/mL)), this molecule returned an increase in clearance of 3 to 5 fold. In addition, in data set [4] (setting [7]), the “duration of initial rapid distribution phase” value is “about 48 hours” and the “pharmacokinetic profile in plasma” value is listed as “two-phase pharmacokinetic profile”. In data set [4] (patients with low circulating CanAg, preliminary analysis), the elimination phase half-life entry was “about 5 days”. The “incidence of possible study drug-related ocular toxicities” value in data set [4] (patients with low plasma CanAg (<1000 U/ml), dose 168 mg/m2) is given as “notable incidence”. Moreover, the “dose limiting toxicities (DLTs)” value in data set [4] (patients, 18 to 297 mg/m2) is “decreased visual acuity, corneal deposits and keratitis”. The t1/2 in data set [5] was ~96 h.
